From a protein production outcome set (Wang et al. 2014)

Assay: label from the status in PepcDB records

## MSLRTLVAGVDTSTQSCKVRVTDAETGELVRFGQAKHPNGTSVDPSYWWSAFQEAAEQAGGLDDVSALAVGGQQHGMVILDNQGNVIRDAMLWNDTSSAPQAAALIEKLGAAPAQDGEPEDPIARGKQRWVKAVGSSPVASYTLTKVAWVAENEPENVKKIAAICLPHDWLSWRIAGYGPVAEGEDAHLEALFTDRSDASGTIYYDAASNEYRRDLIAMVLEAAEGAKAAQSHAEAIVLPTVLGPRDAAPVKADPAIAGKNVEGGCLLAPGGGDNAMASLGLGMAVGDVSISLGTSGVAAAISENPTYDLTGAVSGFADCTGHYLPLACTINGSRILDAGRAALGVDYDELAKLAFASKPGANGITLVPYFDGERTPNRPNATATFSGMTLANTTRENLARAFVEGLLCSQRDCLELIRSLGASITRILLIGGGAKSEAIRTLAPSILGMDVTRPATDEYVAIGAARQAAWVLSGETEPPAWQLTIDGVETGEPTEAVYEAYAKARGEGHHHHHH
  protein production: not failed

## MSLRVYVTGNITVDETWSIPDIPKKGASIHGVKVSQDIGGKGANQAIILSRCGIETRLIAATGNDSNGAWIRQQIKNEPLMLLPDGHFNQHSDTSIILNSADGDNAIITTTAAADTFSLDEMIPHMADAVAGDILLQQGNFSLDKTRALFQYARSRGMTTVFNPSPVNPDFCHLWPLIDIAVVNESEAELLQPYGVKTLVITQGAAGAWLVQEGQRQFCPAVPAEALDTTGAGDTFLAVMLASALLRGVAPDALALAHASRAAAITVSRRGTLSAFPGSRELAALLTTDGAEGHHHHHH
  protein production: not failed

## MSLRWQWRIYEEPLQEPLTTAQGVWRSRSGIYLRLEDEQGQVGYGEIAPLPGWGSETLNADIALCQQLPGHLTPEIMATIPEALPAAQFGFATAWQSVGRLPYRVRPWPICALLGSGQAALEQWQQSWQRGQTTFKWKVGVMSPEEEQAILKALLAALPPGAKLRLDANGSWDRATANRWFAWLDRHGNGKIEYVEQPLPPDQWQALLSLAQTVTTAIALDESVVSAAEVQRWVDRGWPGFFVIKTALFGDPDSLSLLLRRGLEPQRLVFSSALEGAIARTAIFHLLETWQPCHALGFGVDRWRSAPLLTTLTAYERLWERLDQGHHHHHH
  protein production: not failed

## MSLSASLPLAIERRPAAWTFTLSRPEKRNALSAELVEALIDGVDAAHREQVPLLVFAGAGRNFSAGFDFTDYETQSEGDLLLRMVRIEMLLQRVAGSPSLTLALAHGRNFGAGVDLFAACKWRYCTPEAGFRMPGLKFGLVLGTRRFRDIVGADQALSILGSARAFDADEARRIGFVRDCAAQAQWPALIDAAAEAATALDPATRATLHRVLRDDHDDADLAALARSAAQPGFKARIRDYLAQPAAEGHHHHHH
  protein production: not failed

## MSLSFLKHVQDCNTHDLSNFVRFVIEGRRVGWVRKALAQRLKAHGRVFDVTRDAVLLSASLRTPQSRTRAVADVVDRLADEGVVPAPRGELYRVNQSWGEPTLMLLDRAVVPTFGVRAYGVHLNGYVGAGADLHLWIGRRSPDKSVAPGKLDNMVAGGQPADLSLRQNLIKECAEEADLPEALARQAIPVGAITYCMESPAGIKPDTLFLYDLALPEDFRPHNTDGEMADFMLWPAAKVVEAVRTTEAFKFNVNLTVIDFAIRHGLIDPDNEPDYQEILAGLRGRPRERAASEGHHHHHH
  protein production: not failed

## MSLSLKIALISQNENLLNLFPKLALEKNFIPITKTASLTRASKIAFGLQDEVDAIISRGATSDYIKKSVSIPSISIKVTRFDTMRAVYNAKRFGNELALIAYKHSIVDKHEIEAMLGVKIKEFLFSSEDEITTLISKVKTENIKIVVSGKTVTDEAIKQGLYGETINSGEESLRRAIEEALNLIEVRNEGHHHHHH
  protein production: not failed

## MSLSLYYKKIREQLGHELIFMPSVAAVIKNEQGELLFQYPGGEYWSLPAGAIEPGETPEEAVIREVWEETGLKVQVKKQKGVFGGKEFRYTYANGDKVEYIVVVFECEITSGKLKSIDGESLKLQYFSFSEKPPLALPYPDKIFLEGHHHHHH
  protein production: not failed

## MSLSMRDPVIPGTSMAYHPFLPHRAPDFAMSAVLGHQPPFFPALTLPPNGAAALSLPGALAKPIMDQLVGAAETGIPFSSLGPQAHLRPLKTMEPEEEVEDDPKVHLEAKELWDQFHKRGTEMVITKSGRRMFPPFKVRCSGLDKKAKYILLMDIIAADDCRYKFHNSRWMVAGKADPEMPKRMYIHPDSPATGEQWMSKVVTFHKLKLTNNISDKHGFTLAFPSDHATWQGNYSFGTQTILNSMHKYQPRFHIVRANDILKLPYSTFRTYLFPETEFIAVTAYQNDKITQLKIDNNPFAKGFRDTGNGRREKRKQLTLQSMRVFDERHKKENGTSDESSSEQAAFNCFAQASSPAASTVGTSNLKDLCPSEGESDAEAESKEEHGPEACDAAKISTTTSEEPCRDKGSPAVKAHLFAAERPRDSGRLDKASPDSRHSPATISSSTRGLGAEERRSPVREGTAPAKVEEARALPGKEAFAPLTVQTDAAAAHLAQGPLPGLGFAPGLAGQQFFNGHPLFLHPSQFAMGGAFSSMAAAGMGPLLATVSGASTGVSGLDSTAMASAAAAQGLSGASAATLPFHLQQHVLASQGLAMSPFGSLFPYPYTYMAAAAAASSAAASSSVHRHPFLNLNTMRPRLRYSPYSIPVPVPDGSSLLTTALPSMAAAAGPLDGKVAALAASPASVAVDSGSELNSRSSTLSSSSMSLSPKLCAEKEAATSELQSIQRLVSGLEAKPDRSRSASP
  protein production: failed

## MSLSNHSSDIEVGHSMNLTNHFLVAMPSMKDPYFKRSVIYICEHNQDGAMGLMINAPIDITVGGMLKQVDIEPAYPQSHQENLKKPVFNGGPVSEDRGFILHRPRDHYESSMKMTDDIAVTTSKDILTVLGTEAEPEGYIVALGYSGWSAGQLEVELTENSWLTIEADPELIFNTPVHEKWQKAIQKLGISPAQLSSDAGHEGGSHHHHHH
  protein production: not failed

## MSLSNKIFTHSLPMRYADFPTLVDALDYAALSSAGMNFYDRRCQLEDQLEYQTLKARAEAGAKRLLSLNLKKGDRVALIAETSSEFVEAFFACQYAGLVAVPLAIPMGVGQRDSWSAKLQGLLASCQPAAIITGDEWLPLVNAATHDNPELHVLSHAWFKALPEADVALQRPVPNDIAYLQYTSGSTRFPRGVIITHREVMANLRAISHDGIKLRPGDRCVSWLPFYHDMGLVGFLLTPVATQLSVDYLRTQDFAMRPLQWLKLISKNRGTVSVAPPFGYELCQRRVNEKDLAELDLSCWRVAGIGAEPISAEQLHQFAECFRQVNFDNKTFMPCYGLAENALAVSFSDEASGVVVNEVDRDILEYQGKAVAPGAETRAVSTFVNCGKALPEHGIEIRNEAGMPVAERVVGHICISGPSLMSGYFGDQVSQDEIAATGWLDTGDLGYLLDGYLYVTGRIKDLIIIRGRNIWPQDIEYIAEQEPEIHSGDAIAFVTAQEKIILQIQCRISDEERRGQLIHALAARIQSEFGVTAAIDLLPPHSIPRTSSGKPARAEAKKRYQKAYAASLNVQESLAEGHHHHHH
  protein production: not failed

## MSLSQDGLLGEVLSEGVLTLTLGRAPAHPLSRAMIAALHDALRRAMGDDHVHVLVIHGPGRIFCAGHDLKEIGRHRADPDEGRAFVTDLFEACSALMLDLAHCPKPTIALVEGIATAAGLQLMAACDLAYASPAARFCLPGVQNGGFCTTPAVAVSRVIGRRAVTEMALTGATYDADWALAAGLINRILPEAALATHVADLAGALAARNQAPLRRGLETLNRHLELPLEQAYALATPVMVEHFMDPGRRHLDWIDEGHHHHHH
  protein production: not failed

## MSLSSGRTVPTRSHGLGKEGVSTTGASQVEFGDPELTARINDAMVQVEELLHTELSSGEDFLVDIVMHLTRAGGKRFRPMFALLASEFGEKPLSENVIKAAVVVEITHLATLYHDDVMDEASMRRGVPSANARWDNSVAILAGDILLAHASGLMSQLGTDTVAHFAETFGELVTGQMRETVGPRDTDPIEHYTNVIREKTGVLIASAGYLGAMHAGAAPEHIDALKNFGAAVGMIFQIVDDIIDIFSETHESGKTPGTDLREGVFTLPVLYALREDTPVGAELRDILTGPLEDDETVNHVLELLSQSGGRQAALDEVYRYMDIANAELDRLPDSTVKEALRNLATFTVKRVGEGHHHHHH
  protein production: not failed
